Measured values reported in paper PMC12170880.

How the values were obtained:
Conditions in all cases: EMSA: 10 mM Tris-HCl pH 7.5, 50 mM NaCl, 1 mM EDTA, 5% glycerol, 1 mg/mL BSA, 1 mM DTT; 30 min, room temperature; 6% native PAGE, 0.5x TBE
[1] = molecular target: T1, HDIP1-c (Arabidopsis thaliana) (UniProt F4I0M4); assay: EMSA
T1 sequence: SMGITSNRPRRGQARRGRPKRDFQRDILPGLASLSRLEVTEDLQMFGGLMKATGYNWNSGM

[2] = molecular target: T2, HDIP1-a (Arabidopsis thaliana) (UniProt F4I0M4); assay: EMSA
T2 sequence: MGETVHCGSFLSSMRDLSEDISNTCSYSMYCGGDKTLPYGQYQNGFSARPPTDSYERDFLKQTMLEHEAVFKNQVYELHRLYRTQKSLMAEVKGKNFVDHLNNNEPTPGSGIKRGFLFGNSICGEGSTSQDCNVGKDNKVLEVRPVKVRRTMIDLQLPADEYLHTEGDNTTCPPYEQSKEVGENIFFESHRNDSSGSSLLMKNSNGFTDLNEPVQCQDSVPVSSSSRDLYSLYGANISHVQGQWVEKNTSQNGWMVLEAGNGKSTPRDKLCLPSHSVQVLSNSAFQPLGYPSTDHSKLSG

[3] = molecular target: T3, HDIP1-b (Arabidopsis thaliana) (UniProt F4I0M4); assay: EMSA
T3 sequence: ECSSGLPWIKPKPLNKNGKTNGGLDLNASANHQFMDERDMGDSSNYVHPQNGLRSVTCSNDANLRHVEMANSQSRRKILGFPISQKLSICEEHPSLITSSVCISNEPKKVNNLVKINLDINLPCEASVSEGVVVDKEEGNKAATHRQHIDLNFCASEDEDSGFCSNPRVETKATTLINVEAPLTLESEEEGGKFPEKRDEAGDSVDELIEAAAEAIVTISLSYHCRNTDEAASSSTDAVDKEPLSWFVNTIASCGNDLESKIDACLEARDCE

[4] = molecular target: T4, HDIP1-d (Arabidopsis thaliana) (UniProt F4I0M4); assay: EMSA
T4 sequence: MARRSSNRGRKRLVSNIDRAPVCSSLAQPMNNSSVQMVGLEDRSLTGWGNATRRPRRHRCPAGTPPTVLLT

[5] = molecular target: T5, HDIP3-DBD (Arabidopsis thaliana) (UniProt Q9LMG4); assay: EMSA
T5 sequence: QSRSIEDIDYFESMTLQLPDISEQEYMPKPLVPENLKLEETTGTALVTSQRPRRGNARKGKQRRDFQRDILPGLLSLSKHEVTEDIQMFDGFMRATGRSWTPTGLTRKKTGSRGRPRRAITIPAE

[6] = molecular target: T1, HDIP1-c (Arabidopsis thaliana); assay: competition

Row | Sequence | binding [1] | binding [2] | binding [3] | binding [4] | binding [5] | binding [6]
1 | CCACTCCACATAGCTACGTCACTTAAAGTCCCATAGTAACTAATTTTCTTTGAATGTTATAGCAAATTATTAGCAATGTATGATTCTTTGGGTCAAATCTTACACTAAAAACATGAAAATAATTTGAATATCAAGAGATTCATATATTCATATTTTATAACCAAAATATGTAGGGTCTAAATTATTGCTTCTTGACTAGG (double strand) [P2 (200 bp)] | binds |  |  |  |  | 
2 | TGTGAAGAATGCAGTAAGAGGCAGTCAAAGATTCAAAGGGAAAAAAGTTTACGAAAACAAAAGATTATATTTTGGGAGTATTAGGCTGCCACGTGGAAACACTTGCACCGGCATTTGACCGTCGCCGACACATGACCTGGCACGTGCTAGAGACTGTCTTCTCTTCTTCTTCTTCTTTTTCCCTCACTGTTTCACGAACC (double strand) [P1 (200 bp)] | binds | no binding | no binding | no binding | binds | binds
3 | TTCCTAAGAGGTCTAGATTGGTGCTTGGACTTTAATTTGGTCTTCGTCTCTCGTTCTCGTATTTATGCATTTTGAAACTCAAAAAAGGAAGAGAGAGAAGAATAATATGATTTTGGCTACTTGGTTTGGAAATAAGTTAATTAAGTAAAAGTGTATTGAGATATAATTCAATGGTACGTGTGTGAATCCAAAGTCGTGTT (double strand) [P3 (200 bp)] | binds |  |  |  |  | 
